From the supplement of paper PMC11246515
± gives the standard deviation of the averaged measurements.

Assay: total protein half-life in vivo (active degradation + dilution); higher = more stable protein
[1] = E. coli NCM3722 delta-hslV, growth: N-lim chemostat, doubling time 6 h
[2] = E. coli NCM3722 delta-lon, growth: N-lim chemostat, doubling time 6 h
[3] = E. coli NCM3722 delta-smpB, growth: N-lim chemostat, doubling time 6 h
[4] = wild type E. coli NCM3722, growth: C-lim chemostat, doubling time 3 h
[5] = wild type E. coli NCM3722, growth: C-lim chemostat, doubling time 6 h
[6] = wild type E. coli NCM3722, growth: C-lim chemostat, doubling time 12 h
[7] = wild type E. coli NCM3722, growth: N-lim chemostat, doubling time 6 h
[8] = wild type E. coli NCM3722, growth: N-lim chemostat, doubling time 12 h
[9] = wild type E. coli NCM3722, growth: P-lim chemostat, doubling time 6 h
[10] = wild type E. coli NCM3722, growth: P-lim chemostat, doubling time 12 h
[11] = E. coli NCM3722 delta-clpP delta-lon delta-hslV, growth: N-lim chemostat, doubling time 6 h
[12] = E. coli NCM3722 delta-clpP, growth: N-lim chemostat, doubling time 6 h

Sequence	total protein half-life in vivo [1] [h]	total protein half-life in vivo [2] [h]	total protein half-life in vivo [3] [h]	total protein half-life in vivo [4] [h]	total protein half-life in vivo [5] [h]	total protein half-life in vivo [6] [h]	total protein half-life in vivo [7] [h]	total protein half-life in vivo [8] [h]	total protein half-life in vivo [9] [h]	total protein half-life in vivo [10] [h]	total protein half-life in vivo [11] [h]	total protein half-life in vivo [12] [h]
MMKNILAIQSHVVYGHAGNSAAEFPMRRLGANVWPLNTVQFSNHTQYGKWTGCVMPPSHLTEIVQGIAAIDKLHTCDAVLSGYLGSAEQGEHILGIVRQVKAANPQAKYFCDPVMGHPEKGCIVAPGVAEFHVRHGLPASDIIAPNLVELEILCEHAVNNVEEAVLAARELIAQGPQIVLVKHLARAGYSRDRFEMLLVTADEAWHISRPLVDFGMRQPVGVGDVTSGLLLVKLLQGATLQEALEHVTAAVYEIMVTTKAMQEYELQVVAAQDRIAKPEHYFSATKL	2.01 ± 0.45	1.63 ± 0.039	1.73	2.89 ± 0.033	5 ± 1.8	5.86 ± 0.53	1.832 ± 0.0067	2.45	4.49 ± 0.085	8.09 ± 0.6		
MMKRNILAVIVPALLVAGTANAAEIYNKDGNKVDLYGKAVGLHYFSKGNGENSYGGNGDMTYARLGFKGETQINSDLTGYGQWEYNFQGNNSEGADAQTGNKTRLAFAGLKYADVGSFDYGRNYGVVYDALGYTDMLPEFGGDTAYSDDFFVGRVGGVATYRNSNFFGLVDGLNFAVQYLGKNERDTARRSNGDGVGGSISYEYEGFGIVGAYGAADRTNLQEAQPLGNGKKAEQWATGLKYDANNIYLAANYGETRNATPITNKFTNTSGFANKTQDVLLVAQYQFDFGLRPSIAYTKSKAKDVEGIGDVDLVNYFEVGATYYFNKNMSTYVDYIINQIDSDNKLGVGSDDTVAVGIVYQF	5.98 ± 0.073	6.91 ± 0.67	5.865 ± 0.041	3.19 ± 0.046	6.83 ± 0.66	11.12 ± 0.049	5.95 ± 0.26	10.9 ± 0.82	6.15 ± 0.23		5.54 ± 0.65	6.23 ± 0.86
MMKTMRIAAIPGDGIGKEVLPEGIRVLQAAAERWGFALSFEQMEWASCEYYSHHGKMMPDDWHEQLSRFDAIYFGAVGWPDTVPDHISLWGSLLKFRREFDQYVNLRPVRLFPGVPCPLAGKQPGDIDFYVVRENTEGEYSSLGGRVNEGTEHEVVIQESVFTRRGVDRILRYAFELAQSRPRKTLTSATKSNGLAISMPYWDERVEAMAENYPEIRWDKQHIDILCARFVMQPERFDVVVASNLFGDILSDLGPACTGTIGIAPSANLNPERTFPSLFEPVHGSAPDIYGKNIANPIATIWAGAMMLDFLGNGDERFQQAHNGILAAIEEVIAHGPKTPDMKGNATTPQVADAICKIILR	2.66 ± 0.067	4.83 ± 2.4	2.68 ± 0.02	2.6 ± 0.4	4.42 ± 0.51	7.5 ± 1.2	2.6337 ± 0.002	3.89 ± 0.11	4.47 ± 0.67	11.1 ± 0.13	4.1 ± 1.1	2.64 ± 0.46
MMKTVKHLLCCAIAASALISTGVHAASWKDALSSAASELGNQNSTTQEGGWSLASLTNLLSSGNQALSADNMNNAAGILQYCAKQKLASVTDAENIKNQVLEKLGLNSEEQKEDTNYLDGIQGLLKTKDGQQLNLDNIGTTPLAEKVKTKACDLVLKQGLNFIS	2.68	3.02 ± 0.12	2.56 ± 0.057	2.22 ± 0.24	3.873 ± 0.035	3.5	2.1		3.43	3.72 ± 0.56	2.77 ± 0.018	2.37
MMMGEVQSLPSAGLHPALQDALTLALAARPQEKAPGRYELQGDNIFMNVMTFNTQSPVEKKAELHEQYIDIQLLLNGEERILFGMAGTARQCEEFHHEDDYQLCSTIDNEQAIILKPGMFAVFMPGEPHKPGCVVGEPGEIKKVVVKVKADLMA	4.7878 ± 0.0042	5.28	4.8 ± 0.44	2.61 ± 0.37	5.51 ± 0.72	9.27 ± 2.2		7.67	4.2 ± 0.51	10.3 ± 0.17	5.11 ± 0.56	5.65
MMNDGKQQSTFLFHDYETFGTHPALDRPAQFAAIRTDSEFNVIGEPEVFYCKPADDYLPQPGAVLITGITPQEARAKGENEAAFAARIHSLFTVPKTCILGYNNVRFDDEVTRNIFYRNFYDPYAWSWQHDNSRWDLLDVMRACYALRPEGINWPENDDGLPSFRLEHLTKANGIEHSNAHDAMADVYATIAMAKLVKTRQPRLFDYLFTHRNKHKLMALIDVPQMKPLVHVSGMFGAWRGNTSWVAPLAWHPENRNAVIMVDLAGDISPLLELDSDTLRERLYTAKTDLGDNAAVPVKLVHINKCPVLAQANTLRPEDADRLGINRQHCLDNLKILRENPQVREKVVAIFAEAEPFTPSDNVDAQLYNGFFSDADRAAMKIVLETEPRNLPALDITFVDKRIEKLLFNYRARNFPGTLDYAEQQRWLEHRRQVFTPEFLQGYADELQMLVQQYADDKEKVALLKALWQYAEEIV	4.41 ± 0.22		3.9722 ± 0.0028	3.12 ± 0.044	5.87 ± 0.28	9.97 ± 1.4	4.297 ± 0.027	6.577 ± 0.033	6.73 ± 0.97	12.3 ± 0.74	5.14 ± 0.17	4.99 ± 0.24
MMNNKVSFTNSNNPTISLSAVIYFPPKFDETRQYQAIVLSHPGGGVKEQTAGTYAKKLAEKGFVTIAYDASYQGESGGEPRQLENPYIRTEDISAVIDYLTTLSYVDNTRIGAMGICAGAGYTANAAIQDRRIKAIGTVSAVNIGSIFRNGWENNVKSIDALPYVEAGSNARTSDISSGEYAIMPLAPMKESDAPNEELRQAWEYYHTPRAQYPTAPGYATLRSLNQIITYDAYHMAEVYLTQPTQIVAGSQAGSKWMSDDLYDRASSQDKRYHIVEGANHMDLYDGKAYVAEAISVLAPFFEETL	4.23 ± 0.18		4.02 ± 0.44		6.58 ± 0.55	11.2 ± 1.6	4.088 ± 0.028	6.51 ± 0.44	6.21 ± 0.18	13.7 ± 2.8	6.23 ± 1.9	4.63 ± 0.35
